We go through four molecules from US6210671A, “Humanized antibodies reactive with L-selectin” (Protein Design Labs, Inc., priority 1995, dated 2001).

Where only a bound is given, the exact number is not on record here.

Experiment [1] has as its system binding of human neutrophils to stimulated human umbilical vein endothelial cells. To be noted: Kishimoto et al., Blood 78:805 (1991); cited from earlier work.
For experiment [2], the system named is binding of human neutrophils to IL-1 stimulated human umbilical cord endothelial cells (HUVEC). Briefly: Adhesion of human neutrophils to IL-1 stimulated HUVEC. It is filed as cell-based. To be noted: HUVEC stimulated with 20 ng/ml IL-1β for 4 hr; 4° C., 30 min. As for the experimental part: FIG. 5A. Binding of human neutrophils to IL-1 stimulated human umbilical cord endothelial cells (HUVEC). The neutrophils were first treated with irrelevant control antibody, mouse DREG-200 antibody, or humanized IgG1 DREG-200 antibody, or left untreated, as indicated.
The ability of the mouse and humanized DREG-200 antibodies to block the adhesion of human neutrophils to endothelial cells was determined using a modification of the assay method of Hallmann et al., Biochem. Biophys. Res. Comm. 174:236 (1991). Specifically, human umbilical cord endothelial cells (HUVEC; from Clonetics, San Diego) were grown to confluence in EGM medium (Clonetics) in Lab-Tek 8-chamber slides (Nunc, Naperville, Ill.). The HUVEC cells were stimulated with 20 ng/ml IL-1β (R&D Systems, Minneapolis, Minn.) for 4 hr before use. Neutrophils were isolated by density gradient centrifugation from buffy coats that had been cleared of erythrocytes by dextran sedimentation, and then adjusted to 10^7 per ml. The neutrophils (100 μl) were pre-incubated for 20 minutes on ice with varying concentrations of antibody (in 100 μl RPMI). The HUVEC slides were washed free of IL-1β and placed on a rotary shaker (100 rpm) at 4° C. […] Neutrophil adherence was quantified by counting the neutrophils attached to a defined area of the endothelial cell monolayer with a microscope.

In experiment [3] the test system is binding of human lymphocytes to peripheral lymph node high endothelial venules. The note with it: Kishimoto et al.; cited from earlier work.
In a further experiment the test system is rabbit leukocytes. The note with it: reported in the literature; cited from earlier work.
Experiment [4] concerns binding of human PBMC to peripheral lymph node high endothelial venules. Put plainly: Adhesion of human PBMC to peripheral lymph node high endothelial venules. The class given is cell-based. The note with it: frozen sections of mouse peripheral lymph nodes; 25 minutes. As for the experimental part:
FIG. 10: Inhibition of binding of human PBMC to peripheral lymph node high endothelial venules by humanized DREG-55 (HuDREG-55) and humanized DREG-200 (HuDREG-200). The average number of cells bound per HEV for each antibody treatment is shown. Error bars show the standard errors of the values calculated for three sections.
Human peripheral blood mononuclear cells were isolated and cultured for 2 days at 37° C. in 10% FBS/DMEM. After washing and resuspending in assay medium (5% FBS/DMEM/10 mM HEPES, pH 6.9) at 7×10^6 /ml in the presence of the indicated concentrations of humanized DREG-55, humanized DREG-200 or negative control antibody, cells were applied to frozen sections of mouse peripheral lymph nodes (PLN) while rotating at 50 rpm (as described in Streeter et al., Cell 107, 1853 (1988)). After 25 minutes, non-adherent cells were gently dumped and adherent cells fixed to sections by immersion in 1.5% glutaraldehyde-PBS. Slides were counterstained with thionine and the number of cells bound to each high endothelial venule (HEV) (n=60) in triplicate sections was determined microscopically. The average number of cells bound per HEV for each treatment was calculated.

Experiment [5] deals with L-selectin. Briefly: Flow cytometry binding to L1-2 L-selectin transfectants. To be noted: 1 hour incubation; FITC-conjugated goat anti-human Ig. How it is done:
FIG. 8: Binding of humanized DREG-55 to L1-2^L-selectin transfectants compared to binding of control antibody as analyzed by flow cytometry. Fluorescence intensity is indicated on the x-axis.
After washing, cells were incubated in a 1:250 dilution of FITC-conjugated goat anti-human Ig, washed, then analyzed for fluorescence by flow cytometry (FACS).

The next experiment deals with cat leukocytes. To be noted: reported in the literature; cited from earlier work.
Another experiment has as its system human L-selectin. Briefly: Competitive binding of mouse and humanized DREG-200 antibodies against 125I-labeled mouse DREG-200 on transfected cells. To be noted: competition with radio-iodinated mouse DREG-200; 1 hr at 4° C. As for the experimental part:
FIG. 4. Competitive binding of mouse and humanized IgG1 and IgG4 DREG-200 antibodies. The target cells were L2-1 cells, a mouse pre-B cell line, that was transfected with a human L-selectin gene and thus expresses human L-selectin (Berg et al., Biochem. Biophys. Res. Comm. 184:1048 (1992)). 5×10^5 cells were incubated with 3 ng of ^125 I-labeled tracer mouse antibody (2 μCi/μg), together with increasing amounts of mouse or humanized competitor antibody as indicated in 0.2 ml of binding buffer (PBS+2% FBS+0.1% azide) for 1 hr at 4° C. Cells were washed and pelleted, and their bound radioactivity measured. The concentrations of bound and free tracer antibody were calculated.
The affinity of the humanized DREG-200 antibodies for L-selectin were determined by competition with the radio-iodinated mouse DREG-200 antibody (FIG. 4). The binding affinities were calculated according to the methods of Berzofsky (J. A. Berzofsky and I. J. Berkower, in Fundamental Immunology (ed. W. E. Paul), Raven Press (New York), 595 (1984), which is incorporated herein by reference in its entirety for all purposes).

Experiment [6] concerns L-selectin. Put plainly: Competitive binding of mouse and humanized DREG-55 to CHO L-selectin cells. To be noted: 2 hr at 4° C. As for the experimental part:
FIG. 9: Competitive binding of mouse and humanized DREG-55 antibodies to CHO^L-selectin cells expressing L-selectin. Increasing concentrations of cold competitor antibody were incubated with the cells in the presence of radiolabeled tracer humanized DREG-55 antibody, and the ratio of bound/free radioactivity was determined.
The affinity of the humanized DREG-55 antibody for L-selectin was determined by competition with the radio-iodinated humanized DREG-55 antibody (FIG. 9). Purified humanized DREG-55 antibody was labeled with Na^125 I (Amersham, Arlington Heights, Ill.) using lactoperoxidase to 4 mCi/mg of protein (Marchalonis, Biochem. J. 113, 299 (1969)). CHO^L-selectin cells, which were obtained by transfecting the L-selectin genes into the host CHO cells, were used as a source for L-selectin. […] Cells were then washed and centrifuged, and their radioactivities measured. The ratio of bound and free tracer antibody were calculated. The binding affinities were calculated according to the methods of Berzofsky and Berkower (J. A. Berzofsky and I. J. Berkower, in Fundamental Immunology (ed. W. E. Paul), Raven Press (New York), p. 595 (1984), which is incorporated herein by reference).

As to “mouse DREG-200: mouse monoclonal antibody that binds to human L-selectin (Kishimoto et al.); CDR donor [reference compound]”, the “blocking of binding of human neutrophils to stimulated human umbilical vein endothelial cells” value in experiment [1] is on record as “partially or completely block”. Further, the “blocking of binding of neutrophils to HUVEC” value in experiment [2] is recorded as “effectively blocked”. The “blocking of binding of human lymphocytes to peripheral lymph node high endothelial venules” value in [3] was “partially or completely block”. The “cross-reactivity with rabbit leukocytes” value in the experiment on rabbit leukocytes is given as “cross-reactivity”.

B1: humanized DREG-55: humanized anti-L-selectin antibody, mouse DREG-55 CDRs in human Gal framework, sequences in FIG. 7 (antibody, V domains shown)
VH: MNFGSSLIFLVLVLKGVQCEVQLVESGGGLVQPGGSLRLSCAASGFTFSTYAMSWVRQAPGKGLEWVASISTGGSTYYPDSVKGRFTISRDNAKNTLYLQMNSLRAEDTAVYYCARDYDGYFDYWGQGTLVTVSS
VL: METDTILLWVLLLWVPGSTGDIQMTQSPSSLSASVGDRVTITCKASQSVDYDGDSYMNWYQQKPGKAPKLLIYAASNLESGIPSRFSGSGSGTDFTLTISSLQPEDFATYYCQQSNEDPWTFGQGTKVEIK
As to B1, the “adhesion of human PBMC to lymph node high endothelial venules” value in [4] was “block adhesion”. Further, in the experiment on L-selectin [5], the “binding to L1-2 L-selectin transfectants by flow cytometry” value is on record as “reacts”.

B2: humanized DREG-200: humanized anti-L-selectin antibody, mouse DREG-200 CDRs in human Eu framework, sequences in FIG. 2; isotype not stated at these places (antibody, V domains shown)
VH: MGWSCIILFLVATATGVHSQVQLVQSGAEVKKPGSSVKVSCKASGYTFTSYVMHWVRQAPGQGLEWIGYIYPYNDGTKYNEKFKGRVTITSDESTNTAYMELSSLRSEDTAVYYCAREEYGNYVRYFDVWGQGTLVTVSS
VL: MVFTPQILGLMLFWISASRGDIQMTQSPSTLSASVGDRVTITCKSSQSLLNSSNQKNYLAWYQQKPGKAPKLLVYFASTRESGVPDRFIGSGSGTDFTLTISSLQPEDFATYFCHQHYSTPLTFGQGTKVEVK
In the case of B2, in the experiment with cat leukocytes, the “cross-reactivity with cat leukocytes” value is reported as “cross-reactivity”. The “adhesion of human PBMC to lymph node high endothelial venules” value in [4] was “block adhesion”. Further, the “affinity relative to the mouse DREG-200 antibody” value in the experiment with human L-selectin is at most 2 fold.

B3: mouse DREG-55: mouse monoclonal antibody that binds to human L-selectin (Kishimoto et al.); CDR donor (antibody, V domains shown)
VH: MNFGSSLIFLVLVLKGVQCEVKLVESGGGLVKPGGSLKLACAASGFTFSTYAMSWVRQTPEKRLEWVASISTGGSTYYPDSVKGRFTISRDNARNILYLQMSSLRSEDTAMYYCARDYDGYFDYWGQGTTLTVSS
VL: METDTILLWVLLLWVPGSTGDIVLTQSPASLSVSLGERASISCKASQSVDYDGDSYMNWYQQKPGQPPKLLIYAASNLESGIPARFSGSGSGTDFTLNIHPVEEEDAATYYCQQSNEDPWTFGGGTKLEIK
On to B3, for which the “blocking of binding of human neutrophils to stimulated human umbilical vein endothelial cells” value in [1] is “partially or completely block”. Moreover, the “blocking of binding of human lymphocytes to peripheral lymph node high endothelial venules” value in [3] is recorded as “partially or completely block”. Besides, the “affinity for L-selectin compared with humanized DREG-55” value in the experiment on L-selectin [6] was “no significant difference”.
